Results taken from US20180155451A1 (published 2018).

T1: FcγRIIa H (human, UniProt P12318 34-217)
T1 construct: extracellular domain; also called FcgRIIa H type; 2aH
T1 sequence (looked up): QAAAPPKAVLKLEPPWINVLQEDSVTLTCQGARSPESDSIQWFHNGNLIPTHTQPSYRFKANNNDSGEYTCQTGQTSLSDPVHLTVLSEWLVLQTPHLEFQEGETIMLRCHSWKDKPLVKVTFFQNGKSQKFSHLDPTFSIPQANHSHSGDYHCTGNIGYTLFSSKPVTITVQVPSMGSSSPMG

T2: FcγRIIb (human, UniProt P31994 43-217)
T2 construct: extracellular domain; also called FcgRIIb; 2b
T2 sequence (looked up): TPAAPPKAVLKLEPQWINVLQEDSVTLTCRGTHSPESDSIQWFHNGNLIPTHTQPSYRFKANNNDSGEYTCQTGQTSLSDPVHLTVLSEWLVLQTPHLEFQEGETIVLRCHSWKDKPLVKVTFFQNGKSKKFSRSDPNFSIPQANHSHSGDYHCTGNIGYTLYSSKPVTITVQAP


Legend:
FcγRIIa H [1] = biological target: T1, FcγRIIa H; experiment: ratio of He/Con_2aH to He/Con_2b (relative SPR binding to FcγRIIa H over that of the same antibody to FcγRIIb)
FcγRIIa H [2] = biological target: T1, FcγRIIa H; experiment: SPR (Biacore), antibody captured on antigen-peptide chip, FcγR as analyte; binding relative to GpH7-A5/GpH7-B3/GpL16-k0 = 100
FcγRIIb = biological target: T2, FcγRIIb; experiment: as above

He_2aH/2b (IIaH/IIb) (FcγRIIa H [1]) | He/Con_2aH (FcγRIIa H [2]) | He/Con_2b (FcγRIIb) | Binder
2.01 | 12.4 % of HeCon Ab | 6.1 % of HeCon Ab | GpH7-A5/GpH7-B3 variant D265_18N/GpL16-k0 (antibody, human IgG1, kappa, Heterodimerized anti-glypican-3 IgG1; substitution in only one H chain (the GpH7-B3 chain); also called He Ab) heavy 1: not shown heavy 2: not shown light: DIVMTQSPLSLPVTPGEPASISCQASESLVHSNRNTYLHWYLQKPGQSPQLLIYKVSNRFSGVPDRFSGSGSGTDFTLKISRVEAEDVGVYYCSQNTHVPPTFGQGTKVEIERTVAAPSVFIFPPSDEQLKSGTASVVCLLNNFYPREAKVQWKVDNALQSGNSQESVTEQDSKDSTYSLSSTLTLSKADYEKHKVYACEVTHQGLSSPVTKSFNRGEC
1.39 | 71.5 % of HeCon Ab | 51.5 % of HeCon Ab | GpH7-A5/GpH7-B3 variant E269_01G/GpL16-k0 (antibody, human IgG1, kappa, Heterodimerized anti-glypican-3 IgG1; substitution in only one H chain (the GpH7-B3 chain); also called He Ab) heavy 1: not shown heavy 2: not shown light: DIVMTQSPLSLPVTPGEPASISCQASESLVHSNRNTYLHWYLQKPGQSPQLLIYKVSNRFSGVPDRFSGSGSGTDFTLKISRVEAEDVGVYYCSQNTHVPPTFGQGTKVEIERTVAAPSVFIFPPSDEQLKSGTASVVCLLNNFYPREAKVQWKVDNALQSGNSQESVTEQDSKDSTYSLSSTLTLSKADYEKHKVYACEVTHQGLSSPVTKSFNRGEC
1.27 | 48.6 % of HeCon Ab | 38.3 % of HeCon Ab | GpH7-A5/GpH7-B3 variant D265_16H/GpL16-k0 (antibody, human IgG1, kappa, Heterodimerized anti-glypican-3 IgG1; substitution in only one H chain (the GpH7-B3 chain); also called He Ab) heavy 1: not shown heavy 2: not shown light: DIVMTQSPLSLPVTPGEPASISCQASESLVHSNRNTYLHWYLQKPGQSPQLLIYKVSNRFSGVPDRFSGSGSGTDFTLKISRVEAEDVGVYYCSQNTHVPPTFGQGTKVEIERTVAAPSVFIFPPSDEQLKSGTASVVCLLNNFYPREAKVQWKVDNALQSGNSQESVTEQDSKDSTYSLSSTLTLSKADYEKHKVYACEVTHQGLSSPVTKSFNRGEC
2.86 | 3.2 % of HeCon Ab | 1.1 % of HeCon Ab | GpH7-A5/GpH7-B3 variant D265_20W/GpL16-k0 (antibody, human IgG1, kappa, Heterodimerized anti-glypican-3 IgG1; substitution in only one H chain (the GpH7-B3 chain); also called He Ab) heavy 1: not shown heavy 2: not shown light: DIVMTQSPLSLPVTPGEPASISCQASESLVHSNRNTYLHWYLQKPGQSPQLLIYKVSNRFSGVPDRFSGSGSGTDFTLKISRVEAEDVGVYYCSQNTHVPPTFGQGTKVEIERTVAAPSVFIFPPSDEQLKSGTASVVCLLNNFYPREAKVQWKVDNALQSGNSQESVTEQDSKDSTYSLSSTLTLSKADYEKHKVYACEVTHQGLSSPVTKSFNRGEC
1.43 | 47.7 % of HeCon Ab | 33.4 % of HeCon Ab | GpH7-A5/GpH7-B3 variant D265_19Q/GpL16-k0 (antibody, human IgG1, kappa, Heterodimerized anti-glypican-3 IgG1; substitution in only one H chain (the GpH7-B3 chain); also called He Ab) heavy 1: not shown heavy 2: not shown light: DIVMTQSPLSLPVTPGEPASISCQASESLVHSNRNTYLHWYLQKPGQSPQLLIYKVSNRFSGVPDRFSGSGSGTDFTLKISRVEAEDVGVYYCSQNTHVPPTFGQGTKVEIERTVAAPSVFIFPPSDEQLKSGTASVVCLLNNFYPREAKVQWKVDNALQSGNSQESVTEQDSKDSTYSLSSTLTLSKADYEKHKVYACEVTHQGLSSPVTKSFNRGEC
1.87 | 27.8 % of HeCon Ab | 14.9 % of HeCon Ab | GpH7-A5/GpH7-B3 variant D265_11K/GpL16-k0 (antibody, human IgG1, kappa, Heterodimerized anti-glypican-3 IgG1; substitution in only one H chain (the GpH7-B3 chain); also called He Ab) heavy 1: not shown heavy 2: not shown light: DIVMTQSPLSLPVTPGEPASISCQASESLVHSNRNTYLHWYLQKPGQSPQLLIYKVSNRFSGVPDRFSGSGSGTDFTLKISRVEAEDVGVYYCSQNTHVPPTFGQGTKVEIERTVAAPSVFIFPPSDEQLKSGTASVVCLLNNFYPREAKVQWKVDNALQSGNSQESVTEQDSKDSTYSLSSTLTLSKADYEKHKVYACEVTHQGLSSPVTKSFNRGEC
2.35 | 3.1 % of HeCon Ab | 1.3 % of HeCon Ab | GpH7-A5/GpH7-B3 variant D265_07I/GpL16-k0 (antibody, human IgG1, kappa, Heterodimerized anti-glypican-3 IgG1; substitution in only one H chain (the GpH7-B3 chain); also called He Ab) heavy 1: not shown heavy 2: not shown light: DIVMTQSPLSLPVTPGEPASISCQASESLVHSNRNTYLHWYLQKPGQSPQLLIYKVSNRFSGVPDRFSGSGSGTDFTLKISRVEAEDVGVYYCSQNTHVPPTFGQGTKVEIERTVAAPSVFIFPPSDEQLKSGTASVVCLLNNFYPREAKVQWKVDNALQSGNSQESVTEQDSKDSTYSLSSTLTLSKADYEKHKVYACEVTHQGLSSPVTKSFNRGEC
